Data reported in patent US20210253725A1 (BIONTECH, published 2021).

T1: CD134 expressed on the cell surface of HT1080_OX40 cells (human, UniProt P43489 29-277)
T1 construct: whole, on cells; species not restated for the HT1080 transfectant
T1 sequence (looked up): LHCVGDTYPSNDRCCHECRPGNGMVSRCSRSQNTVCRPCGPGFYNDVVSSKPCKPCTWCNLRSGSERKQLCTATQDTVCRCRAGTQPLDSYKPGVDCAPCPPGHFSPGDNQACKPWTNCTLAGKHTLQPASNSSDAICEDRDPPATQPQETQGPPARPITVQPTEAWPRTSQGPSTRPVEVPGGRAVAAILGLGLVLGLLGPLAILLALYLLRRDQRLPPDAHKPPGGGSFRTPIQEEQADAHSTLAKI

T2: CD134 protein (His-tagged, Sino Biological Inc. 10481-H08H) (human, UniProt P43489 29-216)
T2 construct: bought protein coated on ELISA plates; also called OX40; TNFRSF4; not shown: His tag
T2 sequence (looked up): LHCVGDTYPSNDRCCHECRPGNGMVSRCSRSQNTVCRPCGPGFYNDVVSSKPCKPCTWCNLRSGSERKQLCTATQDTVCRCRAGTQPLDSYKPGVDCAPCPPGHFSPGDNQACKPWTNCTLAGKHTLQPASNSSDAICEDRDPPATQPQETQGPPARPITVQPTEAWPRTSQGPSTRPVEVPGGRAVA

B1: P018.S.13.A.G03 (antibody, V domains shown)
VH: QSLEESGGRLVTPGTPLTLTCTASGFSLSSYDVSWVRQAPGKGLEYIGFIGSDGSAHYATWVKGRFTISKTSTTVDLKITSPTTEDTATYFCARDWNDYWAHDLWGPGTLVTVSS
VL: AQVLTQTTSPVSAAVGGTVTINCQASQIVTSKSALSWYQQKPGQPPRLLIYKASTLASGVPSRFSGSGSGTQFTLTISDLESDDAATYYCAGGYYNSGDLNPFGGGTEVVVK
B2: P018.S.08.A.A04 (antibody, V domains shown)
VH: QSVEESGGRLVTPGTPLTLTCTVSGFSLSSYAVSWVRQAPGKGLEWIGVIWNNGATHYATWAKGRFTISKASTTVDLKVTSPTTEDTATYFCARSANDAWSTYSDLWGQGTLVTVSS
VL: DIVMTQTPASVEAAVGGTVTIKCQASQTITNYLSWYQQKPGQPPKLLIYKASTLTSGVSSRFKGSGSGTEFTLTISDLESDDAATYYCQNYYYGSSSGYGFVFGGGTEVVVK
B3: P018.S.13.A.A05 (antibody, V domains shown)
VH: QSLEESGGRLVTPGTPLTLTCTASGFSLSRYDMSWVRQAPGKGLEYIGVISSSGGTNYANWAKGRFTISKTSTTVDLKITSPTTEDTATYFCAREGDYWDFNLWGPGTLVTVSS
VL: AQVLTQTPSSVSAAVGGTVTINCQASQSISNLLAWYQQKPGQPPKLLIYGASTLASGVPSRFSGSGSGTEFTLTISDLESDDAATYYCAGGFPGLDTVAAFGGGTEAVVT
B4: P018.S.14.A.A04 (antibody, V domains shown)
VH: QSLEESGGRLVTPGTPLTLTCTVSGFSLNDYWMSWVRQAPGKGLEWIGYIDVGGSLYYASWAKGRFTISRTSTTVDLKMTSLTTEDTATYFCARGGLTYGFDLWGPGTLVTVSS
VL: DIVMTQTPASVSEPVGGTVTINCQASEDISSYLAWYQQKPGQRPKRLIYGASDLASGVPSRFSASGSGTEYALTISDLESADAATYYCHYYATISGLGVAFGGGTEVVVK
B5: P018.S.08.A.F03 (antibody, V domains shown)
VH: QSVEESGGRLVTPGTPLTLTCTASGFTISSYHMIWVRQAPGEGLEWIGDIYGGTATTDYASWAKGRFTISKTSTTVDLKMTSLTTEDTATYFCARARYSGGSYANYVFNLWGQGTLVTVSS
VL: DIVMTQTPASVEAAVGGTVTIKCQASQSISSYLAWYQQKPGQPPKLLIYRTSTLESGVPSRFKGSGSGTEFTLTISDLESADAATYYCQGYDWSSSNRYDNTFGGGTEVVVK
B6: P018.S.08.A.E03 (antibody, V domains shown)
VH: QSVEESGGRLVTPGTPLTLTCTVSGFSLTYYAVTWVRQPPGKGLEWIGVIYDNGATAFATWAKGRFTMSKNSTTVALKVTSPTTEDTATYFCARSANNAWSTYSNLWGQGTLVTVSS
VL: DIVMTQTPSSVSAAVGGTVTINCQASEDISSYLSWYQQKLGQPPKLLIYKASTLESGVPSRFKGSGSGTEYTLTISDLESDDAATYYCQSYYSGSISGYGFVFGGGTGVVVK
B7: P018.S.14.A.G03 (antibody, V domains shown)
VH: QSLEESGGRLVTPGTPLTLTCTVSGIDLSSYHMCWVRQAPGKGLEYIGYIAYGGNTYYANWAKGRFTISKTSTTVDLRITSPTTEDTATYFCARGYSEDSYWGLWGPGTLVTVSS
VL: AYDMTQTPASVEAAVGGTVTIKCQASQNIENYLAWYQQKPGQPPKLLIYDTSKLTSGVPSRFSGSGSGTDFTLTISGVQSDDAATYYCQQDYGIIFVDNIFGGGTEVVVK
B8: P018.S.13.A.C02 (antibody, V domains shown)
VH: QSVEESGGRLVTPGTPLTLTCTVSGFSLSSYAMSWVRQAPGKGLEWIGIISTSGITYYASWAKGRFTISKTSTMVDLKITSPTTEDTATYFCARLNGFDDYVRYFDFWGLGTLVTVSS
VL: AIELTQTPSSVSAAVGGTVTINCQASESIASNLAWYQQKPGQPPKLLIYAASYLASGVPSRFKGSGSGTEYTLTISGVQSADAATYYCQSAFYVSSSDNAFGGGTEVVVK
B9: P018.S.14.A.H01 (antibody, V domains shown)
VH: QSVEESGGRLVTPGTPLTLTCTVSGFSLSDYYMTWVRQAPGKGLEYIGIMSGSGSTYYASWAKGRFTISKTSSTTLELKITSPTTEDTAIYFCARDGDYAGWGYATGAFDPWGPGTLVTVSS
VL: AAVLTQTPSPVSAAVGGTVTISCQASQSVVGNSLLSWFQKKPGQPPKLLIYSASSLASGVPSRFKGSGSGTQFTLTISDLESDDAATYYCTGRYNSDTDTFVFGGGTEVVVK
B10: P018.S.12.A.C01 (antibody, V domains shown)
VH: QEQLKESGGGLVTPGGTLTLTCTASGFTFSSHAMGWVRQAPGKGLEWIGKIYDDGTTFYANWAKGRFTISRTSTTVDLKMTSLTTEDTATYFCLRGYNSGFNFWGQGTLVTVSS
VL: AQVLTQTPASVSAAVGGTVTISCQSSESVYNNNFLAWYQQKPGQPPKLLIYLASTLASGVPSRFSGSGSGTEFTLTISDLDSDDAATYYCAGGYDDNVYGFGGGTEVVVK
notes: V regions on human Ig constant parts; also called AB134_61
B11: P018.S.11.A.D03 (antibody, V domains shown)
VH: QEQLKETGGGLVQPGGSLTLSCKASGFDFSSGYMSWVRQAPGKGLEWIGYIDPVFGSTYYASWVNGRFAISSHNAQNTLYLQLNSLTAADTATYFCARDLRAFYSGWGGINLWGPGTLVTVSS
VL: AAVLTQTPSPVSAAVGGTVTIKCQSSQIVVNNNFLSWYQQKPGQPPKLLIYDASNLASGVPDRFSGSGSGTQFTLTISGVQSDDAATYYCLGGYDDDAENAFGGGTEVVVQ
notes: V regions on human Ig constant parts; also called AB134_30
B12: P018.S.02.A.H03 (antibody, V domains shown)
VH: QSLEESGGRLVTPGGSLTLTCTVSGIDLSSYGMGWVRQAPGKGLEWIGTISYGGSTFYANWVKGRFTISKTSTTVDLKVTSLTTEDAATYFCAREVPYWSLWGQGTLVTVSS
VL: AYDMTQTPASVAAAVGGTVTIKCQASQSIGSDLSWYQQKRGQPPKLLIYDASTLASGVPSRFKGSGSGTEFTLTISDVQSADAATVYCQQDYSYRNVDNTFGGGTEVVVK
notes: V regions on human Ig constant parts; also called AB134_3
B13: P018.S.05.A.F05 (as anti-CD134 antibody) (antibody, V domains shown)
VH: QSVEESGGRLVTPGTPLTLTCTVSGFSLSNYYMTWVRQAPGKGLEYIGIIGSGVSTYYANWAKGRFTISKASSTTVDLKMTSPTTEDTATYFCARDMYVGNWGDWGLWGQGTLVTVSS
VL: AYDMTQTPASVEVAVGGTVTIKCQASQSISNNLNWYQQKPGQPPKLLIYSVSTLASGVPSRFKGSGSGTDYTLTISGVESVDAATYYCQQDYRIGDLDSAFGGGTEVVVK
notes: V regions on human Ig constant parts; also called AB134_16
B14: P018.S.12.A.D05 (antibody, V domains shown)
VH: QEQLKESGGGVVTPGGTLTLTCTASAFSLNHYNIQWVRQAPGKGLEWIGWILTDGTEYYANWAKGRFTISKTSTTVDLKIASPTTEDTATYFCAREGDWGVDSLWGPGTLVTVSS
VL: ALVMTQTPSPVSAAVGGTVTISCQSSQSVDNNDFLSWYQQKPGQPPKLLIYLASKLASGVPSRFSGSGSGTQFTLTISGVQSDDAATYYCKGLYFDSGWYAAFGGGTEVVVE
notes: V regions on human Ig constant parts; also called AB134_70
B15: P018.S.12.A.B05 (antibody, V domains shown)
VH: QQQLVESGGGLVKPGASLTLTCKASGFFFSGSYYMCWVRQAPGKGLEWIACIYTGSDDDTNYASWAKGRFTISKTSSTTVTLQMTSLTAADTATYFCARRNYDTDWGGDLWGPGTLVTVSS
VL: AVVLTQTPASVEAAVGGTVTIKCQASQSIGSSLAWYQQKPGQRPKLLIYYASNLASGVSSRFKGSGSGTQFTLTISDLESADAATYYCQCTYTSSDYLDAFGGGTEVVVK
notes: V regions on human Ig constant parts; also called AB134_59
B16: P018.S.11.A.G03 (antibody, V domains shown)
VH: QSLEESGGRLVTPGTPLTLTCTASGFSLTNYAMNWVRQAPGKGLEWIGFINYDGNTYYANWAKGRFTISRTSTTVDLKITSPTTEDTATYFCARGGDGYTHIPDTFDPWGPGTLVTVSS
VL: AFEMTQTPSSVSVAVGGTVTIKCQASQSIYSYLSWYQQKPGQPPKLLIYYASTLASGVPSRFVGSGSGTQFTLTISGVESADAATYYCQQGYSYSNIDNVFGGGTEMVVK
notes: V regions on human Ig constant parts; also called AB134_43

Target: human 4-1BB (CD137) (human, UniProt Q07011 24-255)
Sequence (Q07011 24-255): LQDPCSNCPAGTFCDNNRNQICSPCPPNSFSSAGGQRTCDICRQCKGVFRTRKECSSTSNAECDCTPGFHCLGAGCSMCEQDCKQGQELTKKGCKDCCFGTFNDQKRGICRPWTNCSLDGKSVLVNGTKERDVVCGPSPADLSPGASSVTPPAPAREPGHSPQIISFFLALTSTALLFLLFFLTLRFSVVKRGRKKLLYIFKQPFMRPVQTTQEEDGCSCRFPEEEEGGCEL
Assay: cell-based or functional assay
Throughout, for Functional assay Cross-linked by F(ab′)2 fragment IL-8: test concentration or dose not given here.
Throughout, for Functional assay IL-8: test concentration or dose not given here.

Row | Binder | EC 50 [ng/mL] of agonistic function (IL-8 release from CD137-overexpressing HT1080 cells, antibody cross-linked by F(ab')2 goat anti-human IgG)
1 | B1 | 4780 ng/mL
2 | B2 | 5150 ng/mL
3 | B3 | 3720 ng/mL
4 | B4 | 6790 ng/mL
5 | B5 | 2710 ng/mL
6 | B6 | 4960 ng/mL
7 | B7 | 3500 ng/mL
8 | B8 | 3500 ng/mL
9 | B9 | 5820 ng/mL

Target: T1, CD134 expressed on the cell surface of …
Assay: HT1080_OX40 cells, imaging; note: test concentration or dose not given here

Row | Binder | Cellular binding assay [RFU]
10 | B10 | 496 RFU
11 | B11 | 482 RFU
12 | B12 | 198 RFU
13 | B13 | 392 RFU
14 | B14 | 451 RFU
15 | B15 | 536 RFU
16 | B16 | 450 RFU

Target: T2, CD134 protein (His-tagged, Sino …)
Assay: ELISA, coated His-tagged CD134; note: test concentration or dose not given here

Row | Binder | ELISA [abs. corr.]
17 | B10 | 2.49 abs. corr.
18 | B11 | 1.99 abs. corr.
19 | B12 | 0.468 abs. corr.
20 | B13 | 2.41 abs. corr.
21 | B14 | 2.13 abs. corr.
22 | B15 | 2.1 abs. corr.
23 | B16 | 2.11 abs. corr.

Target: T1, CD134 expressed on the cell surface of …
Assay: cell-based or functional assay

Row | Binder | Functional assay Cross-linked by F(ab′)2 fragment IL-8 | Functional assay IL-8
24 | B10 | 2.06 abs. corr. | -0.026 abs. corr.
25 | B11 | 1.86 abs. corr. | 2.24 abs. corr.
26 | B12 | 1.95 abs. corr. | 2.56 abs. corr.
27 | B13 | 1.71 abs. corr. | 0.187 abs. corr.
28 | B14 | 2.15 abs. corr. | -0.007 abs. corr.
29 | B15 | 2.15 abs. corr. | 0.96 abs. corr.
30 | B16 | 2.1 abs. corr. | 1.57 abs. corr.

Target: T1, CD134 expressed on the cell surface of …
Assay: cell-based or functional assay
Remark: another data set of the same source

Row | Binder | EC 50 (IL-8 release, cross-linked)
31 | B10 | 0.431 µg/mL
32 | B11 | 0.176 µg/mL
33 | B12 | 0.215 µg/mL
34 | B13 | 7.12 µg/mL
35 | B14 | 2.4 µg/mL
36 | B15 | 0.102 µg/mL
37 | B16 | 0.894 µg/mL
